Assay results taken from paper PMC7311396, “Ultra-large chemical libraries for the discovery of high-affinity peptide binders” (Nature Communications, 2020).

Target: FITC-labeled NB.1
Test: fluorescence polarisation; direct fluorescence anisotropy: 1:1 dilution series of 14-3-3γ (starting at 100 μM) into FITC-labeled peptide (10 nM or 50 nM); 10 mM HEPES pH 7.4, 150 mM NaCl, 0.1% Tween 20, 0.1% BSA; ambient temperature

B1: 14-3-3γ (natural protein)
chain: MVDREQLVQKARLAEQAERYDDMAAAMKNVTELNEPLSNEERNLLSVAYKNVVGARRSSWRVISSIEQKTSADGNEKKIEMVRAYREKIEKELEAVCQDVLSLLDNYLIKNCSETQYESKVFYLKMKGDYYRYLAEVATGEKRATVVESSEKAYSEAHEISKEHMQPTHPIRLGLALNYSVFYYEIQNAPEQACHLAKTAFDDAIAELDTLNEDSYKDSTLIMQLLRDNLTLWTSDQQDDDGGEGNN
fold weaker binding than the 14-3-3γ-binding peptides: 10000 fold
